Assay results: patent US20210253716A1

Legend:
[1] = target: full length wild type human ACVR1 on HEK293/BRE-luc/hACVR1-wild type cells (human) (UniProt Q04771); assay: flow cytometry, secondary antibody alone (66.6 nM run), HEK293/hACVR1-wt cells
[2] = target: full length human ACVR1 (R206H) on HEK293/BRE-luc/hACVR1-R206H-clone H2 cells (human) (UniProt Q04771); assay: flow cytometry, secondary antibody alone (70 nM run), HEK293/hACVR1-R206H cells
[3] = target: full length human ACVR1 (R206H) on HEK293/BRE-luc/hACVR1-R206H-clone H2 cells (human) (UniProt Q04771); assay: flow cytometry, secondary antibody alone (66.6 nM run), HEK293/hACVR1-R206H cells
[4] = target: full length human ACVR1 (R206H) on HEK293/BRE-luc/hACVR1-R206H-clone H2 cells (human) (UniProt Q04771); assay: cell-based or functional assay
[5] = target: full length human ACVR1 (R206H) on HEK293/BRE-luc/hACVR1-R206H-clone H2 cells (human) (UniProt Q04771); assay: flow cytometry, 70 nM antibody, HEK293/hACVR1-R206H cells
[6] = target: mouse ACVR1 extracellular domain expressed with a C-terminal myc-myc-hexahistidine tag (mouse); assay: SPR (Biacore), mAb captured, 25 C
[7] = target: human ACVR1 extracellular domain expressed with a C-terminal mouse IgG2a Fc tag (human); assay: SPR (Biacore), mAb captured, 25 C
[8] = target: human ACVR1 extracellular domain expressed with a C-terminal myc-myc-hexahistidine tag (human); assay: SPR (Biacore), mAb captured, 25 C
[9] = target: mouse ACVR1 extracellular domain expressed with a C-terminal myc-myc-hexahistidine tag (mouse); assay: SPR (Biacore), mAb captured, 37 C
[10] = target: human ACVR1 extracellular domain expressed with a C-terminal mouse IgG2a Fc tag (human); assay: SPR (Biacore), mAb captured, 37 C
[11] = target: human ACVR1 extracellular domain expressed with a C-terminal myc-myc-hexahistidine tag (human); assay: SPR (Biacore), mAb captured, 37 C
[12] = target: full length wild type human ACVR1 on HEK293/BRE-luc/hACVR1-wild type cells (human) (UniProt Q04771); assay: flow cytometry, 66.6 nM antibody, HEK293/hACVR1-wt cells
[13] = target: full length human ACVR1 (R206H) on HEK293/BRE-luc/hACVR1-R206H-clone H2 cells (human) (UniProt Q04771); assay: flow cytometry, 66.6 nM antibody, HEK293/hACVR1-R206H cells

Chain of full length human ACVR1 (R206H) on HEK293/BRE-luc/hACVR1-R206H-clone H2 cells (human) (Q04771 21-509 R206H): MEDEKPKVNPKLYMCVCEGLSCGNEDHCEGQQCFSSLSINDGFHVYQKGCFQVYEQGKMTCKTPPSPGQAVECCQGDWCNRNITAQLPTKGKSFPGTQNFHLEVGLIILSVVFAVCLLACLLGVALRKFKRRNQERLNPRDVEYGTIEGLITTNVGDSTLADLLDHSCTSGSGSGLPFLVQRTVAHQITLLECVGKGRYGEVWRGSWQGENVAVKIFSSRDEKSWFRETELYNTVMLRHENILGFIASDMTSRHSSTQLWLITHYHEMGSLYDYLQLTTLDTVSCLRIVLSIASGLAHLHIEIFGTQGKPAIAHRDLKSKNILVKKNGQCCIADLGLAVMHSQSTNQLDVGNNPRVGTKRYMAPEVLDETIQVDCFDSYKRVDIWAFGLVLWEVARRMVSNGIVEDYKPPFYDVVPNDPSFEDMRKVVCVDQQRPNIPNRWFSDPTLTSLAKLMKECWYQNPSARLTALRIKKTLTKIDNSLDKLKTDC
Chain of mouse ACVR1 extracellular domain expressed with a C-terminal myc-myc-hexahistidine tag (mouse) (chain, as listed by the source limits assumed): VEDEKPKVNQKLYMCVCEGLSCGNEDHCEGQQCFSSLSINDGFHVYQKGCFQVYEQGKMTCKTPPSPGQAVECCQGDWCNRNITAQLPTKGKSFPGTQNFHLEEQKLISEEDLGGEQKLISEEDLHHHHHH
Chain of human ACVR1 extracellular domain expressed with a C-terminal mouse IgG2a Fc tag (human) (chain, as listed by the source limits assumed): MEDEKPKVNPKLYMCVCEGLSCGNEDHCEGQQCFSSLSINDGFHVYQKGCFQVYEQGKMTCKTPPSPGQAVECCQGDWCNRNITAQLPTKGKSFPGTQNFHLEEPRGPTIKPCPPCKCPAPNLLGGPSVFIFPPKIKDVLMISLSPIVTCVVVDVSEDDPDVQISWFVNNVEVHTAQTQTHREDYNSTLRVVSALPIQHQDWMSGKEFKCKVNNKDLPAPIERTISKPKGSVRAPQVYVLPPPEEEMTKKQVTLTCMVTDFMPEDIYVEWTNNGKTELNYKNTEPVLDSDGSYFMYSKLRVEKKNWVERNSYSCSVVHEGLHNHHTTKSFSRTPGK
Chain of full length wild type human ACVR1 on HEK293/BRE-luc/hACVR1-wild type cells (human) (Q04771 21-509): as the sequence (Q04771 21-509 R206H) above, with H186R counted along it
Chain of human ACVR1 extracellular domain expressed with a C-terminal myc-myc-hexahistidine tag (human) (chain, as listed by the source limits assumed): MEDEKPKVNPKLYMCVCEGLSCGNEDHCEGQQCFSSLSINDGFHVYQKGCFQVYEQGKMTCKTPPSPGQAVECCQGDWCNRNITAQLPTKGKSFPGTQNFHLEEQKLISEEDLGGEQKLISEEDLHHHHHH

Question: Which results are given for “Alexa Fluor-647 conjugated secondary antibody (Jackson ImmunoResearch, anti-human #109-607-003), alone”?
Answer: MFI - Normalized to Unstained Control [1]: 1 fold; MFI - Normalized to Unstained Control [2]: 1 fold; MFI - Normalized to Unstained Control [3]: 1 fold

Question: How did the EC50 [M], BRE-luc reporter activation by ligand [4] turn out when “human Activin A (R&D System 338-AC) (from UniProt P08476 311-426) (ligand)” was run?
Answer: 3.33e-10 M

Question: For “hIgG4 isotype control antibody (REGN1945)”, which MFI - Normalized to Unstained Control [5] is on record?
Answer: 3 fold

Question: And the 900 nM or 100 nM Ag Bound (RU) [6]?
Answer: -2 RU

Question: What about the 100 nM Ag Bound (RU) [7] of the same substance?
Answer: -2 RU

Question: And the 900 nM or 100 nM Ag Bound (RU) [8]?
Answer: 1 RU

Question: And the 900 nM or 100 nM Ag Bound (RU) [9]?
Answer: 0 RU

Question: What about the 100 nM Ag Bound (RU) [10] of the same substance?
Answer: -1 RU

Question: And the 900 nM or 100 nM Ag Bound (RU) [11]?
Answer: 0 RU

Question: What about the MFI - Normalized to Unstained Control [12] of the same substance?
Answer: 3 fold

Question: And the MFI - Normalized to Unstained Control [13]?
Answer: 1 fold

Question: Which results are given for “human Bone Morphogenetic Protein 7 (R&D System 354-BP/C) (from UniProt P18075 293-431) (ligand)”?
Answer: EC50 [M], BRE-luc reporter activation by ligand (run with 2 nM hBMP7) [4]: 1.22e-09 M; EC50 [M], BRE-luc reporter activation by ligand (run with 3 nM hBMP7) [4]: 2.97e-10 M
